Measurements taken from publication PMC6778137, “The midbody interactome reveals unexpected roles for PP1 phosphatases in cytokinesis” (Nature Communications, 2019).

Biological target: T1, MBP::PP1β (UniProt P62140 1-327)
T1 construct: PP1β; Expressed from a derivative of plasmid pMH919 carrying MBP instead of 6His; also called MBP-tagged PP1β; source: S. cerevisiae (strain MGY960), purified on amylose resin, eluted with 20 mM maltose
Assay: pull-down; GST pull-down: GST::MKLP1_(620–858) proteins on Glutathione Sepharose beads mixed with MBP::PP1β purified from yeast; NET-N+ buffer (50 mM Tris-HCl pH 7.4, 150 mM NaCl, 5 mM EDTA, 0.2% NP-40), 60 min at 4 °C, washes with 250 mM NaCl; western blot
Conditions: both partners purified

T1 sequence (P62140 whole entry): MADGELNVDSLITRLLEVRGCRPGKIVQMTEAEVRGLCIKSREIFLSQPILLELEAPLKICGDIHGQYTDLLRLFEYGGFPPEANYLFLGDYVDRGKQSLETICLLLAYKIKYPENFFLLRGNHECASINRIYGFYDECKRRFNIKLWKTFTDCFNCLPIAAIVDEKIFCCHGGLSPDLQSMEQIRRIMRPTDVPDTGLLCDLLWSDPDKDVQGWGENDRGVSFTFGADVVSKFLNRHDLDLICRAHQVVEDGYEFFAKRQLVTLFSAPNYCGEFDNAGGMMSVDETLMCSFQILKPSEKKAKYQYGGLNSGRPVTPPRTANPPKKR

Binder | binding result
GST::MKLP1_(620–858) (wild type) (domain or fragment, UniProt Q02241-2 620-856, looked up, Cloned into pDEST15; source: E. coli, purified (Glutathione Sepharose 4B), kept on beads; not shown: GST, N-terminal, kept) ETTMKWEKECERRVAAKQLEMQNKLWVKDEKLKQLKAIVTEPKTEKPERPSRERDREKVTQRSVSPSPVPLLFQPDQNAPPIRLRHRRSRSAGDRWVDHKPASNMQTETVMQPHVPHAITVSVANEKALAKCEKYMLTHQELASDGEIETKLIKGDIYKTRGGGQSVQFTDIETLKQESPNGSRKRRSSTVAPAQPDGAESEWTDVETRCSVAVEMRAGSQLGPGYQHHAQPKRKKP | binds
GST::MKLP1_(620–858) AQA mutant (domain or fragment, UniProt Q02241-2 620-856, looked up, Cloned into pDEST15; also called AQA MKLP1; source: E. coli, purified (Glutathione Sepharose 4B), kept on beads; not shown: GST, N-terminal, kept) ETTMKWEKECERRVAAKQLEMQNKLWVKDEKLKQLKAIVTEPKTEKPERPSRERDREKVTQRSVSPSPVPLLFQPDQNAPPIRLRHRRSRSAGDRWVDHKPASNMQTETVMQPHVPHAITVSVANEKALAKCEKYMLTHQELASDGEIETKLIKGDIYKTRGGGQSAQATDIETLKQESPNGSRKRRSSTVAPAQPDGAESEWTDVETRCSVAVEMRAGSQLGPGYQHHAQPKRKKP | binds
